Molecular target: human ribosomal stalk protein P2 lacking the last 16 amino acids (P2ΔC) (human) (UniProt P05387)
Assay: native MS

Substance: human ribosomal stalk protein P2 lacking the last 16 amino acids (P2ΔC) (from UniProt P05387 1-99) (domain or fragment)
- stoichiometry N: 2

Source: article PMC5514047
